From patent US20220289830A1

Target: native PcrV on live Pseudomonas aeruginosa (strains O6-57/66, O11-PA103, O1-52/66, O16-177/81) (Pseudomonas aeruginosa)
Assay: cell-based or functional assay

Row | Binder | RBC lysis assay IC50 (P. aeruginosa strain 57/66(O6))
1 | 2D3 (antibody, V domains shown) VH: EVQLLESGGGLVQPGGSLRLSCTASGFTFSDNHMSWVRQAPGKGLDWVSGISESGGSTYYADSVKGRFSTSRDNSKSTLYLDMNSLRAEDTAIYYCAKGRFSYDTRHFFRAVYGMDVWGQGTAVTVSS VL: DIQLTQSPSSLSASVGDRVTITCRASQGISSYLAWYQQKPGKAPKLLIYAASTLQSGVPSRFSGSGSGTDFTLTISSLQPEDFATYYCQQLSSYPLSFGGGTKVEIK | 0.05 µg/mL
2 | 9B12 (antibody, V domains shown) VH: EVQLLESGGGLVQPGGSLRLSCTASGFTFSDNPMSWVRQAPGKGLDWVSVISESGGSTNDADSVKGRFSTSRDNSKSTLYLDMNSLRAEDTAIYYCAKGRFSTNSDHFYRAVYGMDVWGQGTAVTVSS VL: DIQLTQSPSSLSASVGDRVTITCRASQGISSYLAWYQQKPGKAPKLLIYAASTLQSGVPSRFSGSGSGTDFTLTISSLQPEDFATYYCQQLSSYPLTFGGGTKVEIK | 0.07 µg/mL
3 | 7B1-1F5 (antibody, V domains shown) VH: EVQLLESGGGLVQPGGSLRLSCTASGFTFSDNYMSWVRQAPGKGLDWVSVISESGGSTNYADSVKGRFSTSRDNSKSTLYLDMNSLRAEDTAIYYCAKGRFSTLSSHFFRAVYGMDVWGQGTAVTVSS VL: DIQLTQSPSSFSASTGDRVTITCRASQGISSYLAWYQQKPGKAPKVLIYAASTLQSGVPSRFSGSGSGTEFTLTISSLQPEDFATYYCQQLKSYPLTFGGGTKLEIK | 0.19 µg/mL
